This is an account of results in US20160053277A1, “Compositions Having Dicamba Decarboxylase Activity and Methods of Use” (PIONEER HI-BRED INTERNATIONAL, INC., priority 2013, published 2016).

Numbering of substitutions follows the chain as printed. Numbers in names are those of the source.

A short description of this test: Saturation mutagenesis of SEQ ID NO:109: dicamba decarboxylation activity of point mutants (carbon dioxide released).
Setting [1] is: dicamba decarboxylation activity of point mutants of SEQ ID NO: 109, relative to unchanged template.
Setting [2] is: point mutation in SEQ ID NO: 109.

B1: R212Q: point mutant of SEQ ID NO: 109 (protein)
chain: MAQGKVALEEHFAIPETLQDSAGFVPGDYWKELQHRLLDIQDTRLKLMDAHGIETMILSLNAPAVQAIPDRRKAIEIARRANDVLAEECAKRPDRFLAFAALPLQDPDAATEELQRCVNDLGFVGALVNGFSQEGDGQTPLYYDLPQYRPFWGEVEKLDVPFYLHPRNPLPQDSRIYDGHPWLLGPTWAFAQETAVHALRLMASGLFDEHPQLNIILGHMGEGLPYMMWRIDHRVAWVKLPPRYPAKRRFMDYFNENFHITTSGNFRTQTLIDAILEIGADRILFSTDWPFENIDHASDWFNATSIAEADRVKIGRTNARRLFKLDGA
modifications: Dicamba decarboxylase variant clone: DC.4.032
As for B1, the “Average Activity (Fold of SEQ ID NO: 109)” value is, setting by setting: under setting [1], 1.7 Fold of SEQ ID NO: 109; under setting [2], 1.7 Fold of SEQ ID NO: 109.

B2: L240A: point mutant of SEQ ID NO: 109 (protein)
chain: B1 chain with Q212R, L240A
modifications: Dicamba decarboxylase variant clone: DC.4.032
As for B2, the “Average Activity (Fold of SEQ ID NO: 109)” value under setting [1] is 2.3 Fold of SEQ ID NO: 109.

B3: S298T: point mutant of SEQ ID NO: 109 (protein)
chain: B1 chain with Q212R, S298T
modifications: Dicamba decarboxylase variant clone: DC.4.032
As to B3, the “Average Activity (Fold of SEQ ID NO: 109)” value under setting [1] was 2.3 Fold of SEQ ID NO: 109.

B4: N214Q: point mutant of SEQ ID NO: 109 (protein)
chain: B1 chain with Q212R, N214Q
modifications: Dicamba decarboxylase variant clone: DC.4.032
With B4, the “Average Activity (Fold of SEQ ID NO: 109)” value is reported as 1.8 Fold of SEQ ID NO: 109 under setting [1] and 1.8 Fold of SEQ ID NO: 109 under setting [2].

B5: R321N: point mutant of SEQ ID NO: 109 (protein)
chain: B1 chain with Q212R, R321N
modifications: Dicamba decarboxylase variant clone: DC.4.032
Turning to B5, the “Average Activity (Fold of SEQ ID NO: 109)” value under setting [1] is given as 1.7 Fold of SEQ ID NO: 109 and the “Average Activity (Fold of SEQ ID NO: 109)” value under setting [2] is 1.7 Fold of SEQ ID NO: 109.

B6: E16A: point mutant of SEQ ID NO: 109 (protein)
chain: B1 chain with E16A, Q212R
modifications: Dicamba decarboxylase variant clone: DC.4.032
Consider B6, for which the “Average Activity (Fold of SEQ ID NO: 109)” value under setting [1] is recorded as 1.8 Fold of SEQ ID NO: 109.

B7: D299A: point mutant of SEQ ID NO: 109 (protein)
chain: B1 chain with Q212R, D299A
modifications: Dicamba decarboxylase variant clone: DC.4.032
For B7, under setting [1], the “Average Activity (Fold of SEQ ID NO: 109)” value is listed as 2.0 Fold of SEQ ID NO: 109.

B8: N302A: point mutant of SEQ ID NO: 109 (protein)
chain: B1 chain with Q212R, N302A
modifications: Dicamba decarboxylase variant clone: DC.4.032
Turning to B8, the “Average Activity (Fold of SEQ ID NO: 109)” value is, setting by setting: under setting [1], 1.9 Fold of SEQ ID NO: 109; under setting [2], 1.9 Fold of SEQ ID NO: 109.

B9: W229Y: point mutant of SEQ ID NO: 109 (protein)
chain: B1 chain with Q212R, W229Y
modifications: Dicamba decarboxylase variant clone: DC.4.032
As to B9, the “Average Activity (Fold of SEQ ID NO: 109)” value reads like this: under setting [1], 1.7 Fold of SEQ ID NO: 109; under setting [2], 1.7 Fold of SEQ ID NO: 109.

B10: A328D: point mutant of SEQ ID NO: 109 (protein)
chain: B1 chain with Q212R, A328D
modifications: Dicamba decarboxylase variant clone: DC.4.032
For the molecule B10, the “Average Activity (Fold of SEQ ID NO: 109)” value under setting [1] was 2.3 Fold of SEQ ID NO: 109 and the “Average Activity (Fold of SEQ ID NO: 109)” value under setting [2] is 2.3 Fold of SEQ ID NO: 109.

B11: V235I: point mutant of SEQ ID NO: 109 (protein)
chain: B1 chain with Q212R, V235I
modifications: Dicamba decarboxylase variant clone: DC.4.032
Take B11: the “Average Activity (Fold of SEQ ID NO: 109)” value was 1.8 Fold of SEQ ID NO: 109 under setting [1] and 1.8 Fold of SEQ ID NO: 109 under setting [2].

B12: K239H: point mutant of SEQ ID NO: 109 (protein)
chain: B1 chain with Q212R, K239H
modifications: Dicamba decarboxylase variant clone: DC.4.032
Consider B12, for which the “Average Activity (Fold of SEQ ID NO: 109)” value under setting [1] is given as 1.8 Fold of SEQ ID NO: 109 and the “Average Activity (Fold of SEQ ID NO: 109)” value under setting [2] is on record as 1.8 Fold of SEQ ID NO: 109.

B13: L240D: point mutant of SEQ ID NO: 109 (protein)
chain: B1 chain with Q212R, L240D
modifications: Dicamba decarboxylase variant clone: DC.4.032
As to B13, the “Average Activity (Fold of SEQ ID NO: 109)” value under setting [1] was 2.2 Fold of SEQ ID NO: 109.

B14: L240E: point mutant of SEQ ID NO: 109 (protein)
chain: B1 chain with Q212R, L240E
modifications: Dicamba decarboxylase variant clone: DC.4.032
As to B14, the “Average Activity (Fold of SEQ ID NO: 109)” value is, setting by setting: under setting [1], 2.1 Fold of SEQ ID NO: 109; under setting [2], 2.1 Fold of SEQ ID NO: 109.

B15: A303E: point mutant of SEQ ID NO: 109 (protein)
chain: B1 chain with Q212R, A303E
modifications: Dicamba decarboxylase variant clone: DC.4.032
In the case of B15, under setting [1], the “Average Activity (Fold of SEQ ID NO: 109)” value is recorded as 2.3 Fold of SEQ ID NO: 109.

B16: R243A: point mutant of SEQ ID NO: 109 (protein)
chain: B1 chain with Q212R, R243A
modifications: Dicamba decarboxylase variant clone: DC.4.032
Regarding B16, the “Average Activity (Fold of SEQ ID NO: 109)” value by setting is: under setting [1], 1.8 Fold of SEQ ID NO: 109; under setting [2], 1.8 Fold of SEQ ID NO: 109.

B17: S298A: point mutant of SEQ ID NO: 109 (protein)
chain: B1 chain with Q212R, S298A
modifications: Dicamba decarboxylase variant clone: DC.4.032
Take B17: the “Average Activity (Fold of SEQ ID NO: 109)” value is, setting by setting: under setting [1], 2.1 Fold of SEQ ID NO: 109; under setting [2], 2.1 Fold of SEQ ID NO: 109.

B18: G327Q: point mutant of SEQ ID NO: 109 (protein)
chain: B1 chain with Q212R, G327Q
modifications: Dicamba decarboxylase variant clone: DC.4.032
For the molecule B18, the “Average Activity (Fold of SEQ ID NO: 109)” value was 2.8 Fold of SEQ ID NO: 109 under setting [1] and 2.8 Fold of SEQ ID NO: 109 under setting [2].
